The values below come from patent US5210024A, “Isolation of strains of Saccharomyces cerevisiae having altered α-acetyltransferase activity” (priority 1991, dated 1993).

Assay [1] addresses T1, N^α -AT (AAA1 N^α -acetyltransferase) (Saccharomyces cerevisiae, UniProt P07347+P12945).
T1 construct: isolates N^α -acetyltransferase by treating yeast cells with lyticase; endogenous in cells; host or cells: Saccharomyces cerevisiae cells (native enzyme)
T1 sequence (P12945 2-854): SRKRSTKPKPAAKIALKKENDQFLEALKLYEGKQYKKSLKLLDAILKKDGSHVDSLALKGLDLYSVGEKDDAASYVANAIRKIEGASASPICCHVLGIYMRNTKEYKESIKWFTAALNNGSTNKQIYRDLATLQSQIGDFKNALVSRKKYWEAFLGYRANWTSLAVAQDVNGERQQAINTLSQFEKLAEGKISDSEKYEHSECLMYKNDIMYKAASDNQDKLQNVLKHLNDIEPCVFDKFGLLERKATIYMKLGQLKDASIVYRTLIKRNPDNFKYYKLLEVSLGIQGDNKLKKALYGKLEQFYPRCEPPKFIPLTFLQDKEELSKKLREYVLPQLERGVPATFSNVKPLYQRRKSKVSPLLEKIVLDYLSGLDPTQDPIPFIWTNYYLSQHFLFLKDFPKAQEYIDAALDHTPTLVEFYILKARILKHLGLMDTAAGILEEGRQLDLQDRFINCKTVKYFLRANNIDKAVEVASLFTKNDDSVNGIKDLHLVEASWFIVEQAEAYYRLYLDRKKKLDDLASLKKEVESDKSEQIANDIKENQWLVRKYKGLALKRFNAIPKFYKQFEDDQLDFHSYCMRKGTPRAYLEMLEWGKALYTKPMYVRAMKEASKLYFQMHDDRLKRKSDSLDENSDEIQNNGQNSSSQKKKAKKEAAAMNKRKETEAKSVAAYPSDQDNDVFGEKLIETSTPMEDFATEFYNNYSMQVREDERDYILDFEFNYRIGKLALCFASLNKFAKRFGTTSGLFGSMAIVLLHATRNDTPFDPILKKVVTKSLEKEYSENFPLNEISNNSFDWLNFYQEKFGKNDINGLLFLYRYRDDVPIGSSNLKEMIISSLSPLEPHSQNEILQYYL
T1 sequence (P07347 1-238): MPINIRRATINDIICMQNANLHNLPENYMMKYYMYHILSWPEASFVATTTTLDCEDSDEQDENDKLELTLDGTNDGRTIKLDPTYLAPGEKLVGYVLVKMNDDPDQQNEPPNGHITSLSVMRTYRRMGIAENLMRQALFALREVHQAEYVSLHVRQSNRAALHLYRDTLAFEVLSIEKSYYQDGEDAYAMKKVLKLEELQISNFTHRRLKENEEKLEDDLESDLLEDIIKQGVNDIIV
The conditions noted are these: purified enzyme; Lee et al., J. Biol. Chem. 263:14948-14955 (1988); cited from earlier work.

Assay [2] addresses T2, M-N^α -AT (methionine N^α -acetyltransferase) (Saccharomyces cerevisiae, UniProt Q06504).
T2 construct: endogenous in cells; host or cells: Saccharomyces cerevisiae aaa1 (AAA1-null) mutant
T2 sequence (Q06504 1-195): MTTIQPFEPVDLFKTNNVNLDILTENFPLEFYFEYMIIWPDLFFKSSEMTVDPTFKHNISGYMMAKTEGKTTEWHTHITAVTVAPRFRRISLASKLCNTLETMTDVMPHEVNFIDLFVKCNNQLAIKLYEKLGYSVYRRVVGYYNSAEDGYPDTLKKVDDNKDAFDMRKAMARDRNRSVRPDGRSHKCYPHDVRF
T2 sequence (Q12387 2-796 partner limits assumed): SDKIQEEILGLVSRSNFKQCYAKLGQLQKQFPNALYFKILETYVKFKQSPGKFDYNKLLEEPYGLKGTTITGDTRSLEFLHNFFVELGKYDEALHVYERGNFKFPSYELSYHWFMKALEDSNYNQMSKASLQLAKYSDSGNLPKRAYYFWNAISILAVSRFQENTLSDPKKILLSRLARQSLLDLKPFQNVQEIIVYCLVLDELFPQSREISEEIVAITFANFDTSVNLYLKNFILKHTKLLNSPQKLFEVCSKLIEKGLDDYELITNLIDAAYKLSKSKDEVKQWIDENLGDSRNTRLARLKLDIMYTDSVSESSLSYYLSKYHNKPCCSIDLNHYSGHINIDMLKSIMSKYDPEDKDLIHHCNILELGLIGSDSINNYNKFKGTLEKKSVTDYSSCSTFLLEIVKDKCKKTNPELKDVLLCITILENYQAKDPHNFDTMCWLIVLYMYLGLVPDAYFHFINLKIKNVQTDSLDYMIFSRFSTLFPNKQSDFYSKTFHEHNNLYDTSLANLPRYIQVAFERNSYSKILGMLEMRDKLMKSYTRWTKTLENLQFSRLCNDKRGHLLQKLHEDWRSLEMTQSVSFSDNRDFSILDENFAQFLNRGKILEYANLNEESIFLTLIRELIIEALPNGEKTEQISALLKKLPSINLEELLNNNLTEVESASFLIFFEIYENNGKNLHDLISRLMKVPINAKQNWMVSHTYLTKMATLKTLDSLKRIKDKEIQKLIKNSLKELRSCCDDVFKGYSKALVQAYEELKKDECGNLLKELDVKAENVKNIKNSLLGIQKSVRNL
The assay can be described thus: N^α-acetylation of synthetic peptides by methionine N^α-acetyltransferase. The assay is classed as biochemical. Further details: concentration or dose not given beside the values. Here is the method:
(§1) Aliquots of the lysate were added to 1.5 ml Eppendorf tubes containing a reaction mixture of 50 mM HEPES, pH 7.4, 150 mM KCl, 1 mM DTT, 25 μM[^3 H]acetyl coenzyme A (0.5 μCi) and 50 μM ACTH (1-24) with an adjusted final volume of 100 μl. The assay mixture was incubated at 30 C for 30 min. The reaction was stopped by adding 0.5 M acetic acid and chilled in an ice bath. […] The radioactivity in the control represented acetylation of endogenous compounds is subtracted from each sample determination. One unit of activity is defined as 1 pmol of acetyl residues incorporated into ACTH (1-24) under standard assay conditions.
(§2) This second N^α -acetyltransferase is a methionine N^α -acetyltransferase activity, and is designated as "M-N^α -AT." This second N^α -acetyltransferase is the subject of U.S. patent application of John A. Smith and Fang-Jen S. Lee, filed Oct. […] In order to compare the relative specificity and activity of the AAA1 N^α -acetyltransferase ("N^α -AT") of the present invention with the methionine N^α -acetyltransferase activity (M-N^α -AT) of U.S. patent application of John A. Smith and Fang-Jen S. Lee, filed Oct. […] These peptides were assessed for their ability to serve as substrates for the two enzymes. In Table 2, the effect of the amino terminal amino acid on activity is investigated; in Table 3, the effect of the penultimate amino terminal amino acid on activity is investigated.

In assay [3] the target is T1, N^α -AT (AAA1 N^α -acetyltransferase). The assay can be described thus: N^α-acetylation of synthetic peptides by AAA1 N^α-acetyltransferase ([3H]acetyl coenzyme A incorporation). The assay is classed as biochemical. Further details: concentration or dose not given beside the values. Here is the method:
as §1, §2

The mark [4] stands for this setting: Table 2: relative activity for N^α-acetylation of synthetic peptide substrate, influence of the amino terminal residue.
[5] abbreviates: Table 3: relative activity for N^α-acetylation of synthetic peptide substrate, influence of the penultimate amino terminal residue.

“SIPETQKGVIFYESHGKLEYKDIP (SIPETQKGVIFYESHGKLEYKDIP) [ALCOHOL DEHYDROGENASE I (1-24) (Yeast), synthetic peptide substrate, yeast alcohol dehydrogenase I residues 1-24, reference compound]”: the “transfer of an acetyl group to synthetic peptide substrates by purified yeast N^α-acetyltransferase” value (from here on “transfer of an acetyl group”) in assay [1] is “effectively transfer an acetyl group”. Besides, the “Activity (%) (mean activity ± S.D.) M-N^α -AT” value in assay [2] (setting [4]) and in assay [2] (setting [5]) was 0% in each case. The “Activity (%) (mean activity ± S.D.) N^α -AT” value in assay [3] (setting [4]) and in assay [3] (setting [5]) was 102 ± 5% each time.
As to “SNPETQKGVIFYESHGKLEYKDIP (SNPETQKGVIFYESHGKLEYKDIP)”, the “Activity (%) (mean activity ± S.D.) M-N^α -AT” value in assay [2] (setting [5]) was 0%. For the same substance, the “Activity (%) (mean activity ± S.D.) N^α -AT” value in assay [3] (setting [5]) was 116 ± 5%.
The corresponding values for “SPPETQKGVIFYESHGKLEYKDIP (SPPETQKGVIFYESHGKLEYKDIP)” are 0% and 0%.
The corresponding values for “SQPETQKGVIFYESHGKLEYKDIP (SQPETQKGVIFYESHGKLEYKDIP)” are 0% and 134 ± 7%.
Take “SRPETQKGVIFYESHGKLEYKDIP (SRPETQKGVIFYESHGKLEYKDIP)”: in assay [2] (setting [5]), the “Activity (%) (mean activity ± S.D.) M-N^α -AT” value came out at 0%. In addition, the “Activity (%) (mean activity ± S.D.) N^α -AT” value in assay [3] (setting [5]) is given as 102 ± 5%.
Consider “SSPETQKGVIFYESHGKLEYKDIP (SSPETQKGVIFYESHGKLEYKDIP)”, for which the “Activity (%) (mean activity ± S.D.) M-N^α -AT” value in assay [2] (setting [5]) turned out to be 0%. Further, the “Activity (%) (mean activity ± S.D.) N^α -AT” value in assay [3] (setting [5]) is reported as 140 ± 6%.
The corresponding values for “STPETQKGVIFYESHGKLEYKDIP (STPETQKGVIFYESHGKLEYKDIP)” are 0% and 144 ± 8%.
The matching figures for “SVPETQKGVIFYESHGKLEYKDIP (SVPETQKGVIFYESHGKLEYKDIP)”: 0% and 123 ± 7%.
The corresponding values for “SWPETQKGVIFYESHGKLEYKDIP (SWPETQKGVIFYESHGKLEYKDIP)” are 0% and 91 ± 5%.
As to “SYPETQKGVIFYESHGKLEYKDIP (SYPETQKGVIFYESHGKLEYKDIP)”, the “Activity (%) (mean activity ± S.D.) M-N^α -AT” value in assay [2] (setting [5]) is given as 0%. Besides, in assay [3] (setting [5]), the “Activity (%) (mean activity ± S.D.) N^α -AT” value is 169 ± 8%.
Regarding “SYSMEHFRWGKPVGKKRRPVKVYP [ACTH (Human), reference compound]”, in assay [1], the “transfer of an acetyl group” value was “effectively transfer an acetyl group”. Moreover, the “Activity (%) (mean activity ± S.D.) M-N^α -AT” value in assay [2] (setting [4]) and in assay [2] (setting [5]) was 0% throughout. For the same substance, the “Activity (%) (mean activity ± S.D.) N^α -AT” value in assay [3] (setting [4]) and in assay [3] (setting [5]) was 100 ± 5% throughout.
As for “TIPETQKGVIFYESHGKLEYKDIP (TIPETQKGVIFYESHGKLEYKDIP)”, the “Activity (%) (mean activity ± S.D.) M-N^α -AT” value in assay [2] (setting [4]) was 0%. In addition, the “Activity (%) (mean activity ± S.D.) N^α -AT” value in assay [3] (setting [4]) is 103 ± 5%.
The corresponding values for “VIPETQKGVIFYESHGKLEYKDIP (VIPETQKGVIFYESHGKLEYKDIP)” are 0% and 69 ± 4%.
Consider “WIPETQKGVIFYESHGKLEYKDIP (WIPETQKGVIFYESHGKLEYKDIP)”, for which the “Activity (%) (mean activity ± S.D.) M-N^α -AT” value in assay [2] (setting [4]) worked out at 0%. In addition, in assay [3] (setting [4]), the “Activity (%) (mean activity ± S.D.) N^α -AT” value worked out at 0%.
As to “YIPETQKGVIFYESHGKLEYKDIP (YIPETQKGVIFYESHGKLEYKDIP)”, in assay [2] (setting [4]), the “Activity (%) (mean activity ± S.D.) M-N^α -AT” value is 0%. In addition, the “Activity (%) (mean activity ± S.D.) N^α -AT” value in assay [3] (setting [4]) is on record as 20 ± 2%.
Consider “human superoxide dismutase (1-24): synthetic peptide substrate, residues 1-24 of human superoxide dismutase (ATKAVCVLKGDGPVQGIINFEQKE; UniProt P00441 2-25, looked up, fragment)”, for which the “transfer of an acetyl group” value in assay [1] is listed as “effectively transfer an acetyl group”.
